*1 amine or outer side, *2 acyl side, *3 side chain or, on linkers, in order; H or OH if unused. Side-chain parts run from the residue outwards. [ ]: non-standard residue; d: D form. The star is where a group is joined. γGlu = O=C(O)[C@H](CCC(=O)[*:2])N[*:1]; Desaminohistidyl = O=C(CCc1c[nH]cn1)*; Aib = CC(C)(N)C(=O)O
Tests used:
[1] = target: T1, human glucagon receptor (human, UniProt P47871 26-477); assay: displacement of 125I-glucagon from BHK membranes with human glucagon receptor (SPA), Assay (II)(b)
T1 construct: whole, on cells; Potency assay (I)(b): whole BHK cells (clone pLJ6'-4-25) with CRE luciferase; also called hGlucagonR; hGCGR
T1 sequence (P47871 26-477): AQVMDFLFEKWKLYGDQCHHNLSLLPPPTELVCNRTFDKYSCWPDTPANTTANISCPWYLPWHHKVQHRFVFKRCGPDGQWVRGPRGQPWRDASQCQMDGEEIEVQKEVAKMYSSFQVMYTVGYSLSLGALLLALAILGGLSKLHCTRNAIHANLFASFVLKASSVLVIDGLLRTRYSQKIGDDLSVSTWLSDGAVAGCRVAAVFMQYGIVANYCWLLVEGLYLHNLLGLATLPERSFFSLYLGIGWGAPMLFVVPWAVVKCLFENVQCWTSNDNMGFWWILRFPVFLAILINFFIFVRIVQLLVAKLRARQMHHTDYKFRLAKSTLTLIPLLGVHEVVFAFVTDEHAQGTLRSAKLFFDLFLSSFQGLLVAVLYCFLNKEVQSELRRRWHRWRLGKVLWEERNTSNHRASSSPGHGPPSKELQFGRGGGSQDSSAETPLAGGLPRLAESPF

[2] = target: T1, human glucagon receptor; assay: cell-based or functional assay

B1: N^ε24-[(4S)-4-[[(4S)-4-[[(4S)-4-[[(4S)-4-acetamido-4-carboxybutanoyl]amino]-4-carboxybutanoyl]amino]-4-carboxybutanoyl]amino]-4-carboxybutanoyl]-[Imp1, Aib2, … (peptide)
peptide: [Desaminohistidyl][Aib]HGTFTSDYSKYLESRRAQDFVK([γGlu-γGlu-γGlu-γGlu-Ac])WLLST-OH
SMILES: CC(=O)N[C@@H](CCC(=O)N[C@@H](CCC(=O)N[C@@H](CCC(=O)N[C@@H](CCC(=O)NCCCC[C@H](NC(=O)[C@@H](NC(=O)[C@H](Cc1ccccc1)NC(=O)[C@H](CC(=O)O)NC(=O)[C@H](CCC(N)=O)NC(=O)[C@H](C)NC(=O)[C@H](CCCNC(=N)N)NC(=O)[C@H](CCCNC(=N)N)NC(=O)[C@H](CO)NC(=O)[C@H](CCC(=O)O)NC(=O)[C@H](CC(C)C)NC(=O)[C@H](Cc1ccc(O)cc1)NC(=O)[C@H](CCCCN)NC(=O)[C@H](CO)NC(=O)[C@H](Cc1ccc(O)cc1)NC(=O)[C@H](CC(=O)O)NC(=O)[C@H](CO)NC(=O)[C@@H](NC(=O)[C@H](Cc1ccccc1)NC(=O)[C@@H](NC(=O)CNC(=O)[C@H](Cc1c[nH]cn1)NC(=O)C(C)(C)NC(=O)CCc1c[nH]cn1)[C@@H](C)O)[C@@H](C)O)C(C)C)C(=O)N[C@@H](Cc1c[nH]c2ccccc12)C(=O)N[C@@H](CC(C)C)C(=O)N[C@@H](CC(C)C)C(=O)N[C@@H](CO)C(=O)N[C@H](C(=O)O)[C@@H](C)O)C(=O)O)C(=O)O)C(=O)O)C(=O)O
notes: Imp and Aib written X under substitutions
Q: For B1, which IC50 [1] is on record?
A: The IC50 was 1.9 nM.

Q: What about the “EC50 hGlucagonR (pM), CRE luciferase reporter in BHK cells” value (shortened to “EC50 hGlucagonR (pM)”) [2] of the same binder?
A: Its value is 5 pM.

B2: N^ε24-[(4S)-4-[[(4S)-4-[[(4S)-4-[[(4S)-4-acetamido-4-carboxybutanoyl]amino]-4-carboxybutanoyl]amino]-4-carboxybutanoyl]amino]-4-carboxybutanoyl]-[Imp1, Aib2, … (peptide)
peptide: [Desaminohistidyl][Aib]HGTFTSDYSKYLDLRRAQDFVK([γGlu-γGlu-γGlu-γGlu-Ac])WLLST-OH
SMILES: CC(=O)N[C@@H](CCC(=O)N[C@@H](CCC(=O)N[C@@H](CCC(=O)N[C@@H](CCC(=O)NCCCC[C@H](NC(=O)[C@@H](NC(=O)[C@H](Cc1ccccc1)NC(=O)[C@H](CC(=O)O)NC(=O)[C@H](CCC(N)=O)NC(=O)[C@H](C)NC(=O)[C@H](CCCNC(=N)N)NC(=O)[C@H](CCCNC(=N)N)NC(=O)[C@H](CC(C)C)NC(=O)[C@H](CC(=O)O)NC(=O)[C@H](CC(C)C)NC(=O)[C@H](Cc1ccc(O)cc1)NC(=O)[C@H](CCCCN)NC(=O)[C@H](CO)NC(=O)[C@H](Cc1ccc(O)cc1)NC(=O)[C@H](CC(=O)O)NC(=O)[C@H](CO)NC(=O)[C@@H](NC(=O)[C@H](Cc1ccccc1)NC(=O)[C@@H](NC(=O)CNC(=O)[C@H](Cc1c[nH]cn1)NC(=O)C(C)(C)NC(=O)CCc1c[nH]cn1)[C@@H](C)O)[C@@H](C)O)C(C)C)C(=O)N[C@@H](Cc1c[nH]c2ccccc12)C(=O)N[C@@H](CC(C)C)C(=O)N[C@@H](CC(C)C)C(=O)N[C@@H](CO)C(=O)N[C@H](C(=O)O)[C@@H](C)O)C(=O)O)C(=O)O)C(=O)O)C(=O)O
notes: Imp and Aib are written X under substitutions because they have no one-letter code
Q: Which IC50 [1] does the source give for B2 here?
A: The IC50 was 0.2 nM.

Q: What about the “EC50 hGlucagonR (pM)” value [2] of the same binder?
A: The value was 1 pM.

B3: N^ε24-[(4S)-4-[[(4S)-4-[[(4S)-4-[[(4S)-4-acetamido-4-carboxybutanoyl]amino]-4-carboxybutanoyl]amino]-4-carboxybutanoyl]amino]-4-carboxybutanoyl]-[Imp1, Aib2, … (peptide)
peptide: [Desaminohistidyl][Aib]HGTFTSDYSKYLDVRRAQDFVK([γGlu-γGlu-γGlu-γGlu-Ac])WLLST-OH
SMILES: CC(=O)N[C@@H](CCC(=O)N[C@@H](CCC(=O)N[C@@H](CCC(=O)N[C@@H](CCC(=O)NCCCC[C@H](NC(=O)[C@@H](NC(=O)[C@H](Cc1ccccc1)NC(=O)[C@H](CC(=O)O)NC(=O)[C@H](CCC(N)=O)NC(=O)[C@H](C)NC(=O)[C@H](CCCNC(=N)N)NC(=O)[C@H](CCCNC(=N)N)NC(=O)[C@@H](NC(=O)[C@H](CC(=O)O)NC(=O)[C@H](CC(C)C)NC(=O)[C@H](Cc1ccc(O)cc1)NC(=O)[C@H](CCCCN)NC(=O)[C@H](CO)NC(=O)[C@H](Cc1ccc(O)cc1)NC(=O)[C@H](CC(=O)O)NC(=O)[C@H](CO)NC(=O)[C@@H](NC(=O)[C@H](Cc1ccccc1)NC(=O)[C@@H](NC(=O)CNC(=O)[C@H](Cc1c[nH]cn1)NC(=O)C(C)(C)NC(=O)CCc1c[nH]cn1)[C@@H](C)O)[C@@H](C)O)C(C)C)C(C)C)C(=O)N[C@@H](Cc1c[nH]c2ccccc12)C(=O)N[C@@H](CC(C)C)C(=O)N[C@@H](CC(C)C)C(=O)N[C@@H](CO)C(=O)N[C@H](C(=O)O)[C@@H](C)O)C(=O)O)C(=O)O)C(=O)O)C(=O)O
notes: as for B1
Q: For B3, which IC50 [1] is on record?
A: Its IC50 is 0.5 nM.

Q: And the “EC50 hGlucagonR (pM)” value [2]?
A: Its value is 2 pM.

B4: N^ε24-[(4S)-4-[[(4S)-4-[[(4S)-4-[[(4S)-4-acetamido-4-carboxybutanoyl]amino]-4-carboxybutanoyl]amino]-4-carboxybutanoyl]amino]-4-carboxybutanoyl]-[Imp1, Aib2, … (peptide)
peptide: [Desaminohistidyl][Aib]HGTFTSDLSKYLESRRAQDFVK([γGlu-γGlu-γGlu-γGlu-Ac])WLLST-OH
SMILES: CC(=O)N[C@@H](CCC(=O)N[C@@H](CCC(=O)N[C@@H](CCC(=O)N[C@@H](CCC(=O)NCCCC[C@H](NC(=O)[C@@H](NC(=O)[C@H](Cc1ccccc1)NC(=O)[C@H](CC(=O)O)NC(=O)[C@H](CCC(N)=O)NC(=O)[C@H](C)NC(=O)[C@H](CCCNC(=N)N)NC(=O)[C@H](CCCNC(=N)N)NC(=O)[C@H](CO)NC(=O)[C@H](CCC(=O)O)NC(=O)[C@H](CC(C)C)NC(=O)[C@H](Cc1ccc(O)cc1)NC(=O)[C@H](CCCCN)NC(=O)[C@H](CO)NC(=O)[C@H](CC(C)C)NC(=O)[C@H](CC(=O)O)NC(=O)[C@H](CO)NC(=O)[C@@H](NC(=O)[C@H](Cc1ccccc1)NC(=O)[C@@H](NC(=O)CNC(=O)[C@H](Cc1c[nH]cn1)NC(=O)C(C)(C)NC(=O)CCc1c[nH]cn1)[C@@H](C)O)[C@@H](C)O)C(C)C)C(=O)N[C@@H](Cc1c[nH]c2ccccc12)C(=O)N[C@@H](CC(C)C)C(=O)N[C@@H](CC(C)C)C(=O)N[C@@H](CO)C(=O)N[C@H](C(=O)O)[C@@H](C)O)C(=O)O)C(=O)O)C(=O)O)C(=O)O
notes: as for B1
Q: Which IC50 [1] does the source give for B4 here?
A: The IC50 was 4.9 nM.

Q: What about the “EC50 hGlucagonR (pM)” value [2] of the same binder?
A: The value was 10 pM.

B5: N^ε24-[(4S)-4-[[(4S)-4-[[(4S)-4-[[(4S)-4-acetamido-4-carboxybutanoyl]amino]-4-carboxybutanoyl]amino]-4-carboxybutanoyl]amino]-4-carboxybutanoyl]-[Imp1, Aib2, … (peptide)
peptide: [Desaminohistidyl][Aib]HGTFTSDYSKYLESRRAQEFVK([γGlu-γGlu-γGlu-γGlu-Ac])WLLST-OH
SMILES: CC(=O)N[C@@H](CCC(=O)N[C@@H](CCC(=O)N[C@@H](CCC(=O)N[C@@H](CCC(=O)NCCCC[C@H](NC(=O)[C@@H](NC(=O)[C@H](Cc1ccccc1)NC(=O)[C@H](CCC(=O)O)NC(=O)[C@H](CCC(N)=O)NC(=O)[C@H](C)NC(=O)[C@H](CCCNC(=N)N)NC(=O)[C@H](CCCNC(=N)N)NC(=O)[C@H](CO)NC(=O)[C@H](CCC(=O)O)NC(=O)[C@H](CC(C)C)NC(=O)[C@H](Cc1ccc(O)cc1)NC(=O)[C@H](CCCCN)NC(=O)[C@H](CO)NC(=O)[C@H](Cc1ccc(O)cc1)NC(=O)[C@H](CC(=O)O)NC(=O)[C@H](CO)NC(=O)[C@@H](NC(=O)[C@H](Cc1ccccc1)NC(=O)[C@@H](NC(=O)CNC(=O)[C@H](Cc1c[nH]cn1)NC(=O)C(C)(C)NC(=O)CCc1c[nH]cn1)[C@@H](C)O)[C@@H](C)O)C(C)C)C(=O)N[C@@H](Cc1c[nH]c2ccccc12)C(=O)N[C@@H](CC(C)C)C(=O)N[C@@H](CC(C)C)C(=O)N[C@@H](CO)C(=O)N[C@H](C(=O)O)[C@@H](C)O)C(=O)O)C(=O)O)C(=O)O)C(=O)O
notes: as for B1
Q: Which IC50 [1] does the source give for B5 here?
A: The IC50 was 1 nM.

Q: And the “EC50 hGlucagonR (pM)” value [2]?
A: Its value is 2 pM.

B6: N^ε28-[(4S)-4-[[(4S)-4-[[(4S)-4-[[(4S)-4-acetamido-4-carboxybutanoyl]amino]-4-carboxybutanoyl]amino]-4-carboxybutanoyl]amino]-4-carboxybutanoyl]-[Imp1, Aib2, … (peptide)
peptide: [Desaminohistidyl][Aib]HGTFTSDYSKYLESRRAQDFVAWLLK([γGlu-γGlu-γGlu-γGlu-Ac])T-OH
SMILES: CC(=O)N[C@@H](CCC(=O)N[C@@H](CCC(=O)N[C@@H](CCC(=O)N[C@@H](CCC(=O)NCCCC[C@H](NC(=O)[C@H](CC(C)C)NC(=O)[C@H](CC(C)C)NC(=O)[C@H](Cc1c[nH]c2ccccc12)NC(=O)[C@H](C)NC(=O)[C@@H](NC(=O)[C@H](Cc1ccccc1)NC(=O)[C@H](CC(=O)O)NC(=O)[C@H](CCC(N)=O)NC(=O)[C@H](C)NC(=O)[C@H](CCCNC(=N)N)NC(=O)[C@H](CCCNC(=N)N)NC(=O)[C@H](CO)NC(=O)[C@H](CCC(=O)O)NC(=O)[C@H](CC(C)C)NC(=O)[C@H](Cc1ccc(O)cc1)NC(=O)[C@H](CCCCN)NC(=O)[C@H](CO)NC(=O)[C@H](Cc1ccc(O)cc1)NC(=O)[C@H](CC(=O)O)NC(=O)[C@H](CO)NC(=O)[C@@H](NC(=O)[C@H](Cc1ccccc1)NC(=O)[C@@H](NC(=O)CNC(=O)[C@H](Cc1c[nH]cn1)NC(=O)C(C)(C)NC(=O)CCc1c[nH]cn1)[C@@H](C)O)[C@@H](C)O)C(C)C)C(=O)N[C@H](C(=O)O)[C@@H](C)O)C(=O)O)C(=O)O)C(=O)O)C(=O)O
notes: as for B1
Q: What does the source list for B6?
A: IC50 [1]: 1.8 nM; EC50 hGlucagonR (pM), CRE luciferase reporter in BHK cells [2]: 5 pM

B7: N^ε24-[(4S)-4-[[(4S)-4-[[(4S)-4-[[(4S)-4-acetamido-4-carboxybutanoyl]amino]-4-carboxybutanoyl]amino]-4-carboxybutanoyl]amino]-4-carboxybutanoyl]-[Imp1, His3, … (peptide)
peptide: [Desaminohistidyl]SHGTFTSDYSKYLESRRAQEFVK([γGlu-γGlu-γGlu-γGlu-Ac])WLLST-OH
SMILES: CC(=O)N[C@@H](CCC(=O)N[C@@H](CCC(=O)N[C@@H](CCC(=O)N[C@@H](CCC(=O)NCCCC[C@H](NC(=O)[C@@H](NC(=O)[C@H](Cc1ccccc1)NC(=O)[C@H](CCC(=O)O)NC(=O)[C@H](CCC(N)=O)NC(=O)[C@H](C)NC(=O)[C@H](CCCNC(=N)N)NC(=O)[C@H](CCCNC(=N)N)NC(=O)[C@H](CO)NC(=O)[C@H](CCC(=O)O)NC(=O)[C@H](CC(C)C)NC(=O)[C@H](Cc1ccc(O)cc1)NC(=O)[C@H](CCCCN)NC(=O)[C@H](CO)NC(=O)[C@H](Cc1ccc(O)cc1)NC(=O)[C@H](CC(=O)O)NC(=O)[C@H](CO)NC(=O)[C@@H](NC(=O)[C@H](Cc1ccccc1)NC(=O)[C@@H](NC(=O)CNC(=O)[C@H](Cc1c[nH]cn1)NC(=O)[C@H](CO)NC(=O)CCc1c[nH]cn1)[C@@H](C)O)[C@@H](C)O)C(C)C)C(=O)N[C@@H](Cc1c[nH]c2ccccc12)C(=O)N[C@@H](CC(C)C)C(=O)N[C@@H](CC(C)C)C(=O)N[C@@H](CO)C(=O)N[C@H](C(=O)O)[C@@H](C)O)C(=O)O)C(=O)O)C(=O)O)C(=O)O
notes: Imp written X under substitutions
Q: How did the IC50 [1] turn out when B7 was run?
A: Its IC50 is 1.8 nM.

Q: What about the “EC50 hGlucagonR (pM)” value [2] of the same binder?
A: The value was 4.7 pM.
